The target in one experiment is human FcγRIIb (human) (UniProt P31994). Nature of the experiment: SPR.
Experiment [1] addresses human Clever-1 on cells and in tissue (Homo sapiens, UniProt Q9NY15). In words: flow cytometry on cells. (In flow cytometry, cells or beads pass a laser one at a time.)
Another experiment has as its target purified human Clever-1 (Homo sapiens, UniProt Q9NY15). Nature of the experiment: SPR. Background: In SPR one partner is held on a chip, and binding of the other changes the refractive index at the surface.
Experiment [2] deals with purified cynomolgus Clever-1 (Macaca fascicularis, UniProt A0A2K5VS84). In words: SPR.

Sequence of human FcγRIIb (human) (P31994 43-310): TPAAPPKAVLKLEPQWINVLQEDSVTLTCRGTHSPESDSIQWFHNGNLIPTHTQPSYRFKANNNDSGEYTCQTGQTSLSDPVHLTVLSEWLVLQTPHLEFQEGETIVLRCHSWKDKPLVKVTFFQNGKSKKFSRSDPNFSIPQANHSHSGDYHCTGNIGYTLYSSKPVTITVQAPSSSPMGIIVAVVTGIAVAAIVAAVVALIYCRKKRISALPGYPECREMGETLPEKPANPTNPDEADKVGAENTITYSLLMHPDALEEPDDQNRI
Sequence of purified human Clever-1 (Q9NY15 26-2570): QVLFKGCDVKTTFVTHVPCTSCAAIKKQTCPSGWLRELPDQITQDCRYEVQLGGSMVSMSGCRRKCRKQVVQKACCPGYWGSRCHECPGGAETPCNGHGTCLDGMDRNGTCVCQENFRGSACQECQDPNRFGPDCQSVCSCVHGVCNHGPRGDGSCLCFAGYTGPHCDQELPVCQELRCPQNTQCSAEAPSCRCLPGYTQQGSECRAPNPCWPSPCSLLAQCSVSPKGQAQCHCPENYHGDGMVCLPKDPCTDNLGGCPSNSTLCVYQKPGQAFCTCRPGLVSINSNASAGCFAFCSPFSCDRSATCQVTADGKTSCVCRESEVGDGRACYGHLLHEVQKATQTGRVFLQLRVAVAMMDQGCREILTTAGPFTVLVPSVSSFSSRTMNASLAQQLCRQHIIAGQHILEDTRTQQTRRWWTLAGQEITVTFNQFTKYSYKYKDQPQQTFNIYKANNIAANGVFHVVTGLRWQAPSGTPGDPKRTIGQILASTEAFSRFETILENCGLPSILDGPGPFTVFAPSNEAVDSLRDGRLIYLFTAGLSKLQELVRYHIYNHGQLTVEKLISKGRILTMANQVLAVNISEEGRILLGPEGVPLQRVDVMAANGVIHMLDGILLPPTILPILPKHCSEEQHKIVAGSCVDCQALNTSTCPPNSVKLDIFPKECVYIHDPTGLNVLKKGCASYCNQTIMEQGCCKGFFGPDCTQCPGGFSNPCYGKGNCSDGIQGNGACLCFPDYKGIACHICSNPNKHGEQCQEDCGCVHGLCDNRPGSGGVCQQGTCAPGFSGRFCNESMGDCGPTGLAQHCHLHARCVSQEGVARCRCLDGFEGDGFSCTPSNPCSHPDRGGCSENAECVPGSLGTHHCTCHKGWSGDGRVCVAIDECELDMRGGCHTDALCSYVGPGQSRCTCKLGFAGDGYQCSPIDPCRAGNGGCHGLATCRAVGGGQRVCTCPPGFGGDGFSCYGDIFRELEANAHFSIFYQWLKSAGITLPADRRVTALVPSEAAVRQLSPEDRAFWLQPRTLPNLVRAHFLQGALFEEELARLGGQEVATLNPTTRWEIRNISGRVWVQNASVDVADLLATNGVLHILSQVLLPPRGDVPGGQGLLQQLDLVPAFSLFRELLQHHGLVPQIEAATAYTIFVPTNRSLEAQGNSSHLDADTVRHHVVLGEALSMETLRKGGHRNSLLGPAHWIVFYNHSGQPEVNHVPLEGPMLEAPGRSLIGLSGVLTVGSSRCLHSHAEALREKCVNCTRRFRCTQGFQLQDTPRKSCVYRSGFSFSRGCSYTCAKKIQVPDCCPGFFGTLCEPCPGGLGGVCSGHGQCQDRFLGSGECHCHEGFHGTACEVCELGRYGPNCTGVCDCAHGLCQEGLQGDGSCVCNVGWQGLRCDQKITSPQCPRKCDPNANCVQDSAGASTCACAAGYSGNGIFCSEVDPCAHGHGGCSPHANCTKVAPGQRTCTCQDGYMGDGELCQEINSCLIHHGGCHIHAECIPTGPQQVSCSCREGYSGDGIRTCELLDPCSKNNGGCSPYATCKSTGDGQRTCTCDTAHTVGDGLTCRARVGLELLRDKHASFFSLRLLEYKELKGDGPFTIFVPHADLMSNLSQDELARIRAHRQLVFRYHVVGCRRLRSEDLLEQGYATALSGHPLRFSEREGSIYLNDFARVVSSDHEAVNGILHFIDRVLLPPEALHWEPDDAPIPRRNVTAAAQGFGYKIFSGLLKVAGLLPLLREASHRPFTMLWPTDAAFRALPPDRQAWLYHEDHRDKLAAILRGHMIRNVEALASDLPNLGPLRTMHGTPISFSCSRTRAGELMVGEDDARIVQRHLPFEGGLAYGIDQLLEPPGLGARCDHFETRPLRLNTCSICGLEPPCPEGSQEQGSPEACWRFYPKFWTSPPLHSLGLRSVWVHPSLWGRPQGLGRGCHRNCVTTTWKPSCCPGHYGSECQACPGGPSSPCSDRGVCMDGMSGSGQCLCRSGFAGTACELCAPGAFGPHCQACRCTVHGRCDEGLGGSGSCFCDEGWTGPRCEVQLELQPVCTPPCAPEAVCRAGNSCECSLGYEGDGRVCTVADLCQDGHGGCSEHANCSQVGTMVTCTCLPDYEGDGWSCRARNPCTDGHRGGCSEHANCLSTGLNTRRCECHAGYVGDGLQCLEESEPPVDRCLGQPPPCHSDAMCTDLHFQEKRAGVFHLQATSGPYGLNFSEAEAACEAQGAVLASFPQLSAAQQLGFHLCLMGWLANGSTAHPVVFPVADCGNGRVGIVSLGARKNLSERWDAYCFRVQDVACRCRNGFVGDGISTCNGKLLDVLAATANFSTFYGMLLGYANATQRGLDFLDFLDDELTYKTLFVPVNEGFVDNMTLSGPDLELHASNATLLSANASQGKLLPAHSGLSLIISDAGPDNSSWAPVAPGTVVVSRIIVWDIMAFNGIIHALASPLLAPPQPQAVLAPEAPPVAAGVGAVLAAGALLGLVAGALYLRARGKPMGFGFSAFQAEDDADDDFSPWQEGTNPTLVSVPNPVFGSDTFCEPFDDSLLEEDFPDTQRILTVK
Sequence of human Clever-1 on cells and in tissue (Q9NY15 26-2570): as above

The Kd is the concentration at which binding is half-saturated. The low end stands for tighter binding, the high end for weaker binding. rituximab (antibody) gave a Kd in the experiment with human FcγRIIb (human) of 5130 nM.

For the molecule bexmarilimab (antibody), the dissociation constant (Kd) in the experiment with human FcγRIIb (human) was 11400 nM.

B1: bexmarilimab (antibody, V domains shown)
VH: QVTLKESGPTLVKPTQTLTLTCSFSGFSLSTSGMGIGWIRQPPGKALEWLAHIWWDDDKRYNPALKSRLTISKDTSKNQVVLTMTNMDPVDTATYYCARHYGYDPYYAMDYWGQGTLVTVSS
VL: EIVLTQSPGTLSLSPGERATLSCTASSSVSSSYLHWYQQKPGKAPKLLIYRTSNLASGVPSRFSGSGSGTDYTLTISSLQPEDFATYYCHQYHRSPPTFGQGTKLEIK
The term EC50 denotes the midpoint of the concentration-response curve. The low end stands for higher potency in that assay, the high end for lower potency in that assay. The molecule B1 yielded an EC50 in experiment [1] of 2.2 nM. Further, the Kd in the experiment with purified human Clever-1 was 0.75 nM; in experiment [2], 0.92 nM.
